Data reported in patent publication US20260217760A1 (Chugai, published 2026).
Substitutions are numbered along the chain they refer to.

Tests used:
[1] = biological target: T1, protein A (UniProt P38507 37-327); test: rProtein A Sepharose Fast Flow column, stepwise pH elution; fractions analysed by cation exchange chromatography
T1 construct: Immobilised on resin; also called rProtein A Sepharose Fast Flow column (GE Healthcare); HiTrap protein A HP column (GE Healthcare)

[2] = biological target: T1, protein A; test: rProtein A Sepharose Fast Flow column, elution at pH 3.6 and 2.7; cation exchange analysis
[3] = biological target: T1, protein A; test: rProtein A Sepharose Fast Flow column, elution at pH 3.6; cation exchange analysis
[4] = biological target: T1, protein A; test: HiTrap protein A HP column, pH gradient elution; size exclusion analysis
[5] = biological target: T1, protein A; test: HiTrap protein A HP column, pH gradient elution

B1: J142-z72/L180-k (antibody, human IgG4 S228P, kappa)
heavy: QVQLVQSGSELKKPGASVKVSCKASGYTFTDNNMDWVRQAPGQGLEWMGDINTRSGGSIYNEEFQDRVTMTIDKSTGTAYMELSSLRSEDTAVYYCARRRSYGYYHDEWGEGTLVTVSSASTKGPSVFPLAPCSRSTSESTAALGCLVKDYFPEPVTVSWNSGALTSGVHTFPAVLQSSGLYSLSSVVTVPSSSLGTKTYTCNVDHKPSNTKVDKRVESKYGPPCPPCPAPEFLGGPSVFLFPPKPKDTLMISRTPEVTCVVVDVSQEDPEVQFNWYVDGVEVHNAKTKPREEQFNSTYRVVSVLTVLHQDWLNGKEYKCKVSNKGLPSSIEKTISKAKGQPREPQVYTLPPSQEEMTKNQVSLTCLVKGFYPSDIAVEWESNGQPENNYKTTPPVLDSDGSFFLYSRLTVDKSRWQEGNVFSCSVMHEALHNRFTQKSLSLSP
light: DIQMTQSPSSLSASVGDRVTITCKASRNIERNLAWYQQKPGQAPELLIYSASRKESGVPDRFSGSRYGTDFTLTISSLQPEDLATYYCQQYYSPPLTFGGGTKVEIKRTVAAPSVFIFPPSDEQLKSGTASVVCLLNNFYPREAKVQWKVDNALQSGNSQESVTEQDSKDSTYSLSSTLTLSKADYEKHKVYACEVTHQGLSSPVTKSFNRGEC
notes: Homomeric by-product in culture medium of Q153-G4d/J142-z72/L180-k; also called homomeric antibody J142-z72; homomeric antibody against FX
Does B1 bind [1]?
Result: no binding

B2: J142-z73/L180-k (antibody, human IgG4 S228P, kappa)
heavy: B1 heavy with K438E
light: B1 light
notes: Homomeric by-product in culture medium of Q153-z7/J142-z73/L180-k; also called homomeric antibody J142-z73; homomeric antibody against FX
Does B2 bind [2]?
Result: no binding

B3: J300-z107/L210-k (antibody, human IgG4 S228P, kappa)
heavy: QVQLVQSGSELKKPGASVKVSCKASGYTFTDNNMDWVRQAPGQGLEWMGDINTRSGGSIYNEEFQDRVIMTVDKSTDTAYMELSSLRSEDTAVYHCARRKSYGYYLDEWGEGTLVTVSSASTKGPSVFPLAPCSRSTSESTAALGCLVKDYFPEPVTVSWNSGALTSGVHTFPAVLQSSGLYSLSSVVTVPSSSLGTQTYTCNVDHKPSNTKVDKRVESKYGPPCPPCPAPEFLGGPSVFLFPPKPKDTLMISRTPEVTCVVVDVSQEDPEVQFNWYVDGVEVHNAKTKPREEQYNSTYRVVSVLTVLHQDWLNGKEYKCKVSNKGLPSSIEKTISKAKGQPREPQVYTLPPSQEEMTKNQVSLTCLVKGFYPSDIAVEWESNGQPENNYKTTPPVLDSDGSFFLYSKLTVDKSRWQEGNVFSCSVMHEALHNRYTQESLSLSP
light: B1 light with L83I, Y92S
notes: also called homomeric antibody J300-z107; homomeric antibody against FX
Does B3 bind [3]?
Result: no binding

B4: homomeric antibody NTA4L-G3 (antibody, human IgG1, kappa, L234A L235A, N297A)
heavy: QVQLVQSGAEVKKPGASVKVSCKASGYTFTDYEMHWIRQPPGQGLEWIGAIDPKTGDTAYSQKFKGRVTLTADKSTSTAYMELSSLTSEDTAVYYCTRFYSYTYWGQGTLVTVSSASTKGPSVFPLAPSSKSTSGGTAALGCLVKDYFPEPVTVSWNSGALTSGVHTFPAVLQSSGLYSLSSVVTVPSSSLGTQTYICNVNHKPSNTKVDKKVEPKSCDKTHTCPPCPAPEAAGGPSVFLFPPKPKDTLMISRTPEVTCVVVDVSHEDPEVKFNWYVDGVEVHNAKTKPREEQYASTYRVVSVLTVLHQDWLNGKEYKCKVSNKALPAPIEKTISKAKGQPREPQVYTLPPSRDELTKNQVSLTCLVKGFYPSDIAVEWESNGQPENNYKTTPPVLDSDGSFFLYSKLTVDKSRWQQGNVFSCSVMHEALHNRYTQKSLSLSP
light: DVVMTQSPLSLPVTPGEPASISCRSSQSLVHSNRNTYLHWYLQKPGQSPQLLIYKVSNRFSGVPDRFSGSGSGTDFTLKISRVEAEDVGVYYCSQNTHVPPTFGQGTKLEIKRTVAAPSVFIFPPSDEQLKSGTASVVCLLNNFYPREAKVQWKVDNALQSGNSQESVTEQDSKDSTYSLSSTLTLSKADYEKHKVYACEVTHQGLSSPVTKSFNRGEC
notes: Homomeric by-product; also called NTL4L-G3
Does B4 bind [4]?
Result: no binding

B5: homomeric antibody having the H chain of the anti-GPC3 antibody (from no6) (antibody)
heavy: DVVMTQSPLSLPVTPGEPASISCRSSQSLVHSNRNTYLHWYLEKPGQSPQLLIYKVSNRFSGVPDRFSGSGSGTDFTLKISRVEAEDVGVYYCSQNTHVPPTFGQGTKLEIKSSASTKGPSVFPLAPSSKSTSGGTAALGCLVKDYFPEPVTVSWNSGALTSGVHTFPAVLQSSGLYSLSSVVTVPSSSLGTQTYICNVNHKPSNTKVDKKVEPKSCDKTHTCPPCPAPEAAGGPSVFLFPPKPKDTLMISRTPEVTCVVVDVSHEDPEVKFNWYVDGVEVHNAKTKPREEQYASTYRVVSVLTVLHQDWLNGKEYKCKVSNKALPAPIEKTISKAKGQPREPQVYTLPPSRKELTKNQVSLTCLVKGFYPSDIAVEWESNGQPENNYKTTPPVLDSDGSFFLYSKLTVDKSRWQQGNVFSCSVMHEALHNRYTQKSLSLSP
light: QVQLVQSGAEVKKPGASVKVSCKASGYTFTDYEMHWIRKPPGKGLEWIGAINPKTGDTAYSQKFKGRVTLTADKSTSTAYMELSSLTSEDTAVYYCTRFYSYTYWGRGTLVTVSSASVAAPSVFIFPPSDEQLKSGTASVVCLLNNFYPREAKVQWKVDNALQSGNSQESVTEQDSKDSTYSLSSTLTLSKADYEKHKVYACEVTHQGLSSPVTKSFNRGEC
notes: also called no6-Gh-H homomer
Does B5 bind [5]?
Result: no binding
